# Test results taken from patent US8575113.
# B1: caspase-3 (protein)
# chain: SGISLDNSYKMDYPEMGLCIIINNKNFHKSTGMTSRSGTDVDAANLRETFRNLKYEVRNKNDLTREEIVELMRDVSKEDHSKRSSFVCVLLSHGEEGIIFGTNGPVDLKKITNFFRGDRCRSLTGKPKLFIIQACRGTELDCGIETDSGVDDDMACHKIPVEADFLYAYSTAPGYYSWRNSKDGSWFIQSLCAMLKQYADKLEFMHILTRVNRKVATEFESFSFDATFHAKKQIPCIVSMLTKELYFYH
# How the values were obtained:
# [1] = target: GST-linker BIR 2 BIR3Ring
# [2] = target: GST-XIAP linker BIR 2 [GST: P08515]
# Chain of GST-linker BIR 2 BIR3Ring (chain, as listed by the source): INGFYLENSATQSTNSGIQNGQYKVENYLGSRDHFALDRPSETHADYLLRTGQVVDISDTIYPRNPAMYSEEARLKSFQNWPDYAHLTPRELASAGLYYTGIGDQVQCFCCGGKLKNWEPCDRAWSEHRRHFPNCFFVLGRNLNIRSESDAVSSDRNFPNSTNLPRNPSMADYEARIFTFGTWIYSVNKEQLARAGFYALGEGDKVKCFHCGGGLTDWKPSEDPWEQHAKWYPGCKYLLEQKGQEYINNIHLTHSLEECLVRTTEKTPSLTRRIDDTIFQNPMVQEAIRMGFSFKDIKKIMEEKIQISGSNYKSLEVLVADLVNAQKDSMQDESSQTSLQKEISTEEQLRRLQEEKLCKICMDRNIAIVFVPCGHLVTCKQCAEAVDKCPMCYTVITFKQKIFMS
protein,measurement,setting,value
B1,"Caspase 3 activity (DEVD-AMC hydrolysis, Vo of AMC fluorescence/sec)",[1],caspase-3 was inhibited by linker-BIR2 or linker BIR2-BIR3-RING of XIAP
same,"Caspase 3 activity (DEVD-AMC hydrolysis, Vo of AMC fluorescence/sec)",[2],caspase-3 was inhibited by linker-BIR2 or linker BIR2-BIR3-RING of XIAP
